Molecular target: human transferrin receptor (hTfR, CD71) (human, UniProt P02786 89-760)
Experiment: filter binding

Sequence of human transferrin receptor (hTfR, CD71) (P02786 89-760): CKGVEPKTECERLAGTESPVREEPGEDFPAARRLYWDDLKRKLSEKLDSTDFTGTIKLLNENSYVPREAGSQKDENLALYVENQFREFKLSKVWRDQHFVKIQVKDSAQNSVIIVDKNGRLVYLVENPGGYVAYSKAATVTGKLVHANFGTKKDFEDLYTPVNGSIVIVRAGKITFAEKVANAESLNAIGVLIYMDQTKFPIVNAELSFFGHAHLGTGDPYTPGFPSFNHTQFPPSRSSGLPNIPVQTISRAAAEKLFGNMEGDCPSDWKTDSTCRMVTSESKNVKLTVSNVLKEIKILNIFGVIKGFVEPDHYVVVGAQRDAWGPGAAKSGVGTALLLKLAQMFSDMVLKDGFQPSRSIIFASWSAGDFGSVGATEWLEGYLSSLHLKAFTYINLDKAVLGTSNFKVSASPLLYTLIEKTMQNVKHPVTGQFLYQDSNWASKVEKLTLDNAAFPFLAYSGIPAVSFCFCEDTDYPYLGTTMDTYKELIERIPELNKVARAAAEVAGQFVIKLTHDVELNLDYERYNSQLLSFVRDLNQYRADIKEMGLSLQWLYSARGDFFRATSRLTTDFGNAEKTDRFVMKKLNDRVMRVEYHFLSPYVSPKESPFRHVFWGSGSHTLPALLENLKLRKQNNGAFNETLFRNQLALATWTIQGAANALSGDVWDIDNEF

B1: c2.min (structured_RNA)
RNA: GGGGGAUCAAUCCAAGGGACCCGGAAACGCUCCCUUACACCCC
modifications: 2'-fluoro C and U; 3' inverted dT; 5' thiol
Binder B1 has a Kd of 102 nM.
